Data reported in US20240279356A1 (Xencor, published 2024).

Assays:
human MSLN antigen [1] = target: T1, human MSLN antigen (human, UniProt Q13421 296-580, limits assumed); assay: Octet BLI; bsAb on anti-human Fc sensor, human MSLN as analyte, one concentration
T1 construct: Soluble antigen for BLI; also called Mesothelin; MESO
Outline: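 Anti-MSLN×anti-CD3 bispecifics carrying MESO-C VH/VL variant Fvs were captured on anti-human Fc biosensors and dipped into human MSLN antigen, followed by buffer dissociation. Initial library screen used one antigen concentration; selected and combination variants were run at multiple concentrations, giving KD, ka and kd.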

cyno MSLN [2] = target: T2, cyno MSLN (Macaca fascicularis (cynomolgus)); assay: Octet BLI, several concentrations; lower table, column head only 'cyno MSLN (M)'
T2 construct: soluble antigen for Octet; also called cynomolgus MSLN

human MSLN antigen [3] = target: T1, human MSLN antigen; assay: Octet BLI on human MSLN antigen (Example 2B(a)); KD quoted in the FIG. 35 legend
Excerpt: Variants of MESO-C were engineered by introducing point substitutions into the variable heavy region (VH) and the variable light region (VL) to generate 11 VH variants and 16 VL variants (sequences for which are depicted in FIG. 18 as H1.1-H1.13 and in FIG. 19 as L1.1-L1.18). An additional 4 VL variants were generated by combining useful point substitutions (sequences for which are depicted in FIG. 19 as L1.19-L1.22). WT and variant variable heavy regions were paired with WT and variant variable light regions to generate variant variable regions (Fvs) which were produced in the context of anti-MSLN×anti-CD3 bispecific antibodies. The bispecific antibodies were screened for MSLN binding affinity using Octet®, a BioLayer Interferometry (BLI)-based method. Experimental steps for Octet® generally include the following: Immobilization (capture of ligand to a biosensor); Association (dipping of ligand-coated biosensors into wells containing the analyte); and Dissociation (returning of biosensors to well containing buffer). In an initial screening, anti-human Fc sensors were used to capture the bispecific mAbs and dipped into human MSLN antigen (one concentration to screen large library). The resulting dissociation constant of illustrative variants (KD), association rate (kₐ), dissociation rate (kd), as well as sensorgram response are depicted in FIG. 20. In further screening of favorite variants identified in the initial screen (and combination variants), bispecific mAbs were dipped into multiple concentrations of human MSLN antigen, data for which are depicted in FIG. 21 (from various screens).

cyno MSLN [4] = target: T2, cyno MSLN; assay: Octet BLI; bsAb on anti-human Fc sensor, cyno MSLN as analyte, one concentration
human MSLN antigen [5] = target: T1, human MSLN antigen; assay: MSLN binding affinity (Octet BLI, Example 2B(a)); quoted in the RTCC example

T1 sequence (Q13421 other isoform, or with tags, fused parts or gaps limits assumed): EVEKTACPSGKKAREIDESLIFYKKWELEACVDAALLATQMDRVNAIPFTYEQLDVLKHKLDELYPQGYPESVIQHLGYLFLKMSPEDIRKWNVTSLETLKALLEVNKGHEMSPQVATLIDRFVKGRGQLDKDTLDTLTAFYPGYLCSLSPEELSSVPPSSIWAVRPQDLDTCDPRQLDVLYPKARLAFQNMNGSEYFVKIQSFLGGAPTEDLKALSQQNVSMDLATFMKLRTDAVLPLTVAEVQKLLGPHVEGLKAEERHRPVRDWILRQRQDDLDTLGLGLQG

| Kd (human MSLN antigen [1]) [nM] | Response (human MSLN antigen [1]) | koff (human MSLN antigen [1]) [s⁻¹] | kon (human MSLN antigen [1]) [M⁻¹ s⁻¹] | Kd (cyno MSLN [2]) [nM] | Kd (human MSLN antigen [3]) [nM] | Kd (cyno MSLN [4]) [nM] | Response (cyno MSLN [4]) | koff (cyno MSLN [4]) [s⁻¹] | kon (cyno MSLN [4]) [M⁻¹ s⁻¹] | Kd (human MSLN antigen [5]) [nM] | Binder |
| --- | --- | --- | --- | --- | --- | --- | --- | --- | --- | --- | --- |
| 15.3 | 0.953 | 0.00887 | 578000 | 6.7 | 3.9 | 21.5 | 0.822 | 0.013 | 608000 |  | XENP32567 (bispecific antibody, 1+1 Fab-scFv-Fc) heavy: QVQLVQSGAEVKKPGASVKVSCKASGYTFTSYWMHWVRQAPGQGLEWMGMIHPNSDNTIYYEKFQGRVTMTVDKSISTAYMELSRLRSDDTAVYYCAIIITPVVPKFDYWGQGTLVTVSSASTKGPSVFPLAPSSKSTSGGTAALGCLVKDYFPEPVTVSWNSGALTSGVHTFPAVLQSSGLYSLSSVVTVPSSSLGTQTYICNVNHKPSDTKVDKKVEPKSCDKTHTCPPCPAPPVAGPSVFLFPPKPKDTLMISRTPEVTCVVVDVKHEDPEVKFNWYVDGVEVHNAKTKPREEEYNSTYRVVSVLTVLHQDWLNGKEYKCKVSNKALPAPIEKTISKAKGQPREPQVYTLPPSREEMTKNQVSLTCDVSGFYPSDIAVEWESDGQPENNYKTTPPVLDSDGSFFLYSKLTVDKSRWEQGDVFSCSVMHEALHNHYTQKSLSLSPGK scFv-Fc: not shown light: DIVMTQSPDSLAVSLGERATINCKASHDVGTSVAWYQQKPGQSPKLLIYWASTRHTGVPDRFTGSGSGTDFTLTISSLQAEDVAVYFCQQYYSYPLTFGAGTKLEIKRTVAAPSVFIFPPSDEQLKSGTASVVCLLNNFYPREAKVQWKVDNALQSGNSQESVTEQDSKDSTYSLSSTLTLSKADYEKHKVYACEVTHQGLSSPVTKSFNRGEC |
|  |  |  |  |  |  |  |  |  |  | 90.4 | XENP33366 (bispecific antibody, 2+1 Fab2-scFv-Fc) heavy: QVQLVQSGAEVKKPGASVKVSCKASGYTFTSYWMHWVRQAPGQGLEWMGWIHPNSDNTIYYEKFQGRVTMTVDKSISTAYMELSRLRSDDTAVYYCAIIITPVVPKFDYWGQGTLVTVSSASTKGPSVFPLAPSSKSTSGGTAALGCLVKDYFPEPVTVSWNSGALTSGVHTFPAVLQSSGLYSLSSVVTVPSSSLGTQTYICNVNHKPSDTKVDKKVEPKSCDKTHTCPPCPAPPVAGPSVFLFPPKPKDTLMISRTPEVTCVVVDVKHEDPEVKFNWYVDGVEVHNAKTKPREEEYNSTYRVVSVLTVLHQDWLNGKEYKCKVSNKALPAPIEKTISKAKGQPREPQVYTLPPSREEMTKNQVSLTCDVSGFYPSDIAVEWESDGQPENNYKTTPPVLDSDGSFFLYSKLTVDKSRWEQGDVFSCSVMHEALHNHYTQKSLSLSPGK Fab-scFv-Fc: QVQLVQSGAEVKKPGASVKVSCKASGYTFTSYWMHWVRQAPGQGLEWMGWIHPNSDNTIYYEKFQGRVTMTVDKSISTAYMELSRLRSDDTAVYYCAIIITPVVPKFDYWGQGTLVTVSSASTKGPSVFPLAPSSKSTSGGTAALGCLVKDYFPEPVTVSWNSGALTSGVHTFPAVLQSSGLYSLSSVVTVPSSSLGTQTYICNVNHKPSNTKVDKKVEPKSCGGGGSGGGGSQAVVTQEPSLTVSPGGTVTLTCGSSTGAVTTSNYANWVQQKPGKSPRGLIGGTNKRAPGVPARFSGSLLGGKAALTISGAQPEDEADYYCALWYSNHWVFGGGTKLTVLGKPGSGKPGSGKPGSGKPGSEVQLVESGGGLVQPGGSLRLSCAASGFTFSTYAMNWVRQAPGKGLEWVGRIRSKANNYATYYADSVKGRFTISRDDSKNTLYLQMNSLRAEDTAVYYCVRHGNFGDSYVSWFAYWGQGTLVTVSSGGGGSGGGGSKTHTCPPCPAPPVAGPSVFLFPPKPKDTLMISRTPEVTCVVVDVKHEDPEVKFNWYVDGVEVHNAKTKPREEQYNSTYRVVSVLTVLHQDWLNGKEYKCKVSNKALPAPIEKTISKAKGQPREPQVYTLPPSREQMTKNQVKLTCLVKGFYPSDIAVEWESNGQPENNYKTTPPVLDSDGSFFLYSKLTVDKSRWQQGNVFSCSVMHEALHNHYTQKSLSLSPGK light: DIVMTQSPDSLAVSLGERATINCKASHDVGQSVAWYQQKPGQSPKLLIYWASTRHTGVPDRFTGSGSGTDFTLTISSLQAEDVAVYFCQQYSSYPLTFGAGTKLEIKRTVAAPSVFIFPPSDEQLKSGTASVVCLLNNFYPREAKVQWKVDNALQSGNSQESVTEQDSKDSTYSLSSTLTLSKADYEKHKVYACEVTHQGLSSPVTKSFNRGEC |
|  |  |  |  |  |  |  |  |  |  | 246 | XENP33367 (bispecific antibody, 2+1 Fab2-scFv-Fc) heavy: QVQLVQSGAEVKKPGASVKVSCKASGYTFTSYWMHWVRQAPGQGLEWMGWIHPNSDNTIYYEKFQGRVTMTVDKSISTAYMELSRLRSDDTAVYYCAIIITPVVPKFDYWGQGTLVTVSSASTKGPSVFPLAPSSKSTSGGTAALGCLVKDYFPEPVTVSWNSGALTSGVHTFPAVLQSSGLYSLSSVVTVPSSSLGTQTYICNVNHKPSDTKVDKKVEPKSCDKTHTCPPCPAPPVAGPSVFLFPPKPKDTLMISRTPEVTCVVVDVKHEDPEVKFNWYVDGVEVHNAKTKPREEEYNSTYRVVSVLTVLHQDWLNGKEYKCKVSNKALPAPIEKTISKAKGQPREPQVYTLPPSREEMTKNQVSLTCDVSGFYPSDIAVEWESDGQPENNYKTTPPVLDSDGSFFLYSKLTVDKSRWEQGDVFSCSVMHEALHNHYTQKSLSLSPGK Fab-scFv-Fc: QVQLVQSGAEVKKPGASVKVSCKASGYTFTSYWMHWVRQAPGQGLEWMGWIHPNSDNTIYYEKFQGRVTMTVDKSISTAYMELSRLRSDDTAVYYCAIIITPVVPKFDYWGQGTLVTVSSASTKGPSVFPLAPSSKSTSGGTAALGCLVKDYFPEPVTVSWNSGALTSGVHTFPAVLQSSGLYSLSSVVTVPSSSLGTQTYICNVNHKPSNTKVDKKVEPKSCGGGGSGGGGSQAVVTQEPSLTVSPGGTVTLTCGSSTGAVTTSNYANWVQQKPGKSPRGLIGGTNKRAPGVPARFSGSLLGGKAALTISGAQPEDEADYYCALWYSNHWVFGGGTKLTVLGKPGSGKPGSGKPGSGKPGSEVQLVESGGGLVQPGGSLRLSCAASGFTFSTYAMNWVRQAPGKGLEWVGRIRSKANNYATYYADSVKGRFTISRDDSKNTLYLQMNSLRAEDTAVYYCVRHGNFGDSYVSWFAYWGQGTLVTVSSGGGGSGGGGSKTHTCPPCPAPPVAGPSVFLFPPKPKDTLMISRTPEVTCVVVDVKHEDPEVKFNWYVDGVEVHNAKTKPREEQYNSTYRVVSVLTVLHQDWLNGKEYKCKVSNKALPAPIEKTISKAKGQPREPQVYTLPPSREQMTKNQVKLTCLVKGFYPSDIAVEWESNGQPENNYKTTPPVLDSDGSFFLYSKLTVDKSRWQQGNVFSCSVMHEALHNHYTQKSLSLSPGK light: DIVMTQSPDSLAVSLGERATINCKASHDVGTSVAWYQQKPGQSPKLLIYWASTRHTGVPDRFTGSGSGTDFTLTISSLQAEDVAVYFCQQYSSFPLTFGAGTKLEIKRTVAAPSVFIFPPSDEQLKSGTASVVCLLNNFYPREAKVQWKVDNALQSGNSQESVTEQDSKDSTYSLSSTLTLSKADYEKHKVYACEVTHQGLSSPVTKSFNRGEC |
